From the supplement of paper PMC7877785
± gives the uncertainty stated by the source.

Experiment: self-splicing fitness, log relative to wild type (ln ratio); higher = more splicing; Tetrahymena group I intron in knt gene, E. coli kanamycin selection, DiMSum; sequences stand for … in CUCUCU…GGAGGGAAAAGUUAUCAGGCAUGCACCUGGUAGCUAGUCUUUAAACCAAUAGAUUGCAUCGGUUUAAAAGGCAAGACCGUCAAAUUGCGGGAAAGGGGUCAACAGCCGUUCAGUACCAAGUCUCAGGGGAAACUUUGAGAUGGCCUUGCAAAGGGUAUGGUAAUAAGCUGACGGACAUGGUCCUAACCACGCAGCCAAGUCCUAAGUCAACAGAUCUUCUGUUGAUAUGGAUGCAGUUCACAGACUAAAUGUCGGUCGGGGAAGAUGUAUUCUUCUCAUAAGAUAUAGUCGGACCUCUCCUUAAUGGGAGCUAGCGGAUGAAGUGAUGCAACACUGGAGCCGCUGGGAACUAAUUUGUAUGCGAAAGUAUAUUGAUUAGUUUUGGAGUACUCGUGGUCG
Method in brief: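 Fitness was computed with DiMSum as the error-weighted combination of replicate fold changes, kanamycin versus none, each normalised to wild type. The library randomised all eight intron nucleotides of the P1ex region, with the intron placed in the knt kanamycin-resistance gene on pET-22b(+) in E. coli BL21(DE3). Six replicate transformations were grown overnight at 37°C or 30°C on LB agar with or without 25 μg/mL kanamycin, plus 100 μg/mL carbenicillin, 50 μM IPTG and 0.2% rhamnose. Pooled colonies were amplicon-sequenced on an Illumina HiSeq 2500.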

Sequence | self-splicing fitness (ln) (30 °C) | self-splicing fitness (ln) (37 °C)
GUGAAGCAAUAUUACGGGGG | -2.67 ± 0.14 | -3.08 ± 0.14
GUGAAGCAAUAUUACGGGGU | -3.53 ± 0.16 | -1.45 ± 0.14
GUGAAGCAAUAUUACGGUGC | -1.74 ± 0.27 | -0.977 ± 0.27
GUGAAGCAAUAUUACGUGGU | -4.17 ± 0.24 | -1.61 ± 0.14
GUGCAGCAAUAUUACGAAAG | -1.58 ± 0.18 | -2.38 ± 0.27
GUGCAGCAAUAUUACGAACU | -1.16 ± 0.11 | 0.161 ± 0.12
GUGCAGCAAUAUUACGAAGU | -1.74 ± 0.14 | -0.554 ± 0.17
GUGCAGCAAUAUUACGAAUG | -2.95 ± 0.16 | -2.01 ± 0.19
GUGCAGCAAUAUUACGACGC | -0.518 ± 0.099 | 0.23 ± 0.13
GUGCAGCAAUAUUACGAGAC | -2.12 ± 0.13 | -1.53 ± 0.12
GUGCAGCAAUAUUACGAUAG | -2.3 ± 0.22 | -2.21 ± 0.27
GUGCAGCAAUAUUACGAUGG | -3.54 ± 0.37 | -3.15 ± 0.47
GUGCAGCAAUAUUACGCAGC | -3.21 ± 0.34 | -1.3 ± 0.34
GUGCAGCAAUAUUACGCAUG | -3.11 ± 0.29 | -0.586 ± 0.16
GUGCAGCAAUAUUACGCCAC | – | -1.95 ± 0.47
GUGCAGCAAUAUUACGCUUU | -1.26 ± 0.066 | -0.18 ± 0.074
GUGCAGCAAUAUUACGGAGG | -3.96 ± 0.22 | -2.55 ± 0.25
GUGCAGCAAUAUUACGGCGA | -0.548 ± 0.064 | 0.119 ± 0.092
GUGCAGCAAUAUUACGGCGG | -1.98 ± 0.11 | -1.1 ± 0.13
GUGCAGCAAUAUUACGGUCA | -1.46 ± 0.12 | -1.16 ± 0.11

Sequence | self-splicing fitness (ln) (30 °C) | self-splicing fitness (ln) (37 °C)
GUGCAGCAAUAUUACGGUCC | -0.146 ± 0.15 | 0.0655 ± 0.22
GUGCAGCAAUAUUACGGUGC | -1.91 ± 0.19 | -2.31 ± 0.28
GUGCAGCAAUAUUACGUCAU | -2.23 ± 0.089 | -1.95 ± 0.1
GUGCAGCAAUAUUACGUGAG | -0.173 ± 0.054 | -0.117 ± 0.084
GUGCAGCAAUAUUACGUGUA | -2.77 ± 0.16 | -1.31 ± 0.11
GUGCAGCAAUAUUACGUUAU | -1.84 ± 0.084 | -0.973 ± 0.098
GUGCAGCAAUAUUACGUUCU | -1.1 ± 0.1 | 0.673 ± 0.097
GUGGAGCAAUAUUACGACUA | – | -0.509 ± 0.37
GUGGAGCAAUAUUACGCCAA | -2.82 ± 0.33 | -0.536 ± 0.33
GUGGAGCAAUAUUACGCGAU | -2.82 ± 0.32 | -2.31 ± 0.39
GUGGAGCAAUAUUACGCGGG | -2.34 ± 0.36 | -2.06 ± 0.47
GUGGAGCAAUAUUACGGCAU | -2.46 ± 0.13 | -2.62 ± 0.17
GUGGAGCAAUAUUACGGCUA | -1.06 ± 0.48 | -0.218 ± 0.35
GUGGAGCAAUAUUACGGUCA | -2.12 ± 0.17 | -1.23 ± 0.13
GUGGAGCAAUAUUACGUAGA | -2.11 ± 0.45 | -1.16 ± 0.23
GUGGAGCAAUAUUACGUGUG | -2.65 ± 0.21 | -2.65 ± 0.23
GUGGAGCAAUAUUACGUUUU | -3.35 ± 0.28 | -2.48 ± 0.48
GUGUAGCAAUAUUACGACAC | -2.68 ± 0.18 | -2.17 ± 0.2
GUGUAGCAAUAUUACGAGUG | -2.83 ± 0.43 | –
